The results in this text go back to the Immune Epitope Database (IEDB).

What all share (assay): IEDB peptide-MHC binding, purified MHC/competitive/radioactivity; ≥ and ≤ were set here for values at or beyond the usual limits of such assays
Test [1] has as its target HLA-A*02:02.
The target of test [2] is HLA-A*02:01.
The target in test [3] is HLA-A*02:06.
In test [4] the target is HLA-A*02:03.
Test [5] deals with HLA-A*68:02.
[6] abbreviates: source organism: Mammarenavirus choriomeningitidis.
The mark [7] stands for this setting: source organism: Vaccinia virus WR.
[8] abbreviates: source organism: Hepacivirus hominis.
Where [9] appears, read: source organism: Influenza A virus.
Setting [10] is: source organism: Mammarenavirus machupoense.
Where [11] appears, read: source organism: Mammarenavirus brazilense.

As usually defined, the IC50 is the concentration that gives 50% inhibition. For RNHLRDLMGV, the concentration for half-maximal inhibition (IC50) is 428 nM in test [1] (setting [6]); 113 nM in test [2] (setting [6]); 107 nM in test [3] (setting [6]); 733 nM in test [4] (setting [6]); 2820 nM in test [5] (setting [6]).
In the case of TLLIKTLSPA, the half-inhibitory concentration (IC50) in test [1] (setting [7]) was 1 nM; in test [2] (setting [7]) it was 0.49 nM; in test [3] (setting [7]), 0.73 nM; in test [4] (setting [7]), 1.2 nM; in test [5] (setting [7]) it was 1210 nM.
With FVDTMSIYI, the IC50 in test [1] (setting [7]) was 21 nM; in test [2] (setting [7]), 9.6 nM; in test [3] (setting [7]) it was 16 nM; in test [4] (setting [7]), 370 nM; in test [5] (setting [7]) it was 465 nM.
Consider VIKLVKSLV, for which the IC50 in test [1] (setting [7]) turned out to be 1030 nM; in test [2] (setting [7]), 881 nM; in test [3] (setting [7]), 4120 nM; in test [4] (setting [7]), 126 nM; in test [5] (setting [7]), 640 nM.
In the case of MMMNWSPTTA, the half-inhibitory concentration (IC50) was 14 nM in test [1] (setting [8]); 34 nM in test [2] (setting [8]); 849 nM in test [3] (setting [8]); 6.1 nM in test [4] (setting [8]); 1140 nM in test [5] (setting [8]).
In the case of SCINRCFYV, the IC50 in test [1] (setting [9]) amounted to 808 nM; in test [2] (setting [9]), 295 nM; in test [3] (setting [9]), 226 nM; in test [4] (setting [9]), 947 nM; in test [5] (setting [9]) it was 1080 nM.
Consider YAAEMVEYL, for which the IC50 in test [1] (setting [7]) amounted to 0.52 nM; in test [2] (setting [7]) it was 32 nM; in test [3] (setting [7]) it was 12 nM; in test [4] (setting [7]), 2.1 nM; in test [5] (setting [7]), 13 nM.
Take IMETIDPVYI: the IC50 in test [1] (setting [7]) is 29 nM; in test [2] (setting [7]), 127 nM; in test [3] (setting [7]), 349 nM; in test [4] (setting [7]), 239 nM; in test [5] (setting [7]) it was 821 nM.
Regarding ETLPELNLSL, the IC50 came out at 52 nM in test [1] (setting [7]); 1100 nM in test [2] (setting [7]); 134 nM in test [3] (setting [7]); 130 nM in test [4] (setting [7]); 648 nM in test [5] (setting [7]).
For ALNIALVAV, the IC50 in test [1] (setting [10]) worked out at 15 nM; in test [2] (setting [10]), 79 nM; in test [3] (setting [10]), 371 nM; in test [4] (setting [10]) it was 4.5 nM; in test [5] (setting [10]), 3340 nM.
SIFVSTMPV: the half-inhibitory concentration (IC50) in test [1] (setting [7]) was found to be 37 nM; in test [2] (setting [7]) it was 40 nM; in test [3] (setting [7]), 82 nM; in test [4] (setting [7]) it was 6.6 nM; in test [5] (setting [7]), 10 nM.
Turning to YVHEGVSYEV, the 50% inhibitory concentration (IC50) in test [1] (setting [7]) stood at 13 nM; in test [2] (setting [7]) it was 83 nM; in test [3] (setting [7]), 9.1 nM; in test [4] (setting [7]) it was 71 nM; in test [5] (setting [7]) it was 14 nM.
As for TMADLVYAL, the IC50 in test [1] (source organism: SARS-CoV1) was determined as 0.18 nM; in test [2] (source organism: SARS-CoV1), 6.5 nM; in test [3] (source organism: SARS-CoV1) it was 47 nM; in test [4] (source organism: SARS-CoV1), 16 nM; in test [5] (source organism: SARS-CoV1) it was 20 nM.
For ALMDLLMFS, the concentration for half-maximal inhibition (IC50) stood at 0.94 nM in test [1] (setting [6]); 2.4 nM in test [2] (setting [6]); 14 nM in test [3] (setting [6]); 104 nM in test [4] (setting [6]); 2990 nM in test [5] (setting [6]).
For the sequence FLDWIKDIMT, the IC50 in test [1] (setting [7]) came out at 424 nM; in test [2] (setting [7]), 50 nM; in test [3] (setting [7]) it was 140 nM; in test [4] (setting [7]), 146 nM; in test [5] (setting [7]), 4860 nM.
Regarding ALLSCISVPV, the half-maximal inhibitory concentration (IC50) came to 41 nM in test [1] (setting [8]); 28 nM in test [2] (setting [8]); 76 nM in test [3] (setting [8]); 43 nM in test [4] (setting [8]); 1270 nM in test [5] (setting [8]).
As for LLLWISVKV, the concentration for half-maximal inhibition (IC50) worked out at 94 nM in test [1] (source organism: SARS-CoV1); 13 nM in test [2] (source organism: SARS-CoV1); 10 nM in test [3] (source organism: SARS-CoV1); 198 nM in test [4] (source organism: SARS-CoV1); 2740 nM in test [5] (source organism: SARS-CoV1).
On to HSLPRCWLV, for which the half-inhibitory concentration (IC50) in test [1] (setting [11]) is 655 nM; in test [2] (setting [11]) it was 2130 nM; in test [3] (setting [11]), 323 nM; in test [4] (setting [11]), 147 nM; in test [5] (setting [11]), 660 nM.
Consider IMSIGFEARI, for which the half-maximal inhibitory concentration (IC50) came out at 703 nM in test [1] (setting [7]); 1590 nM in test [2] (setting [7]); 1600 nM in test [3] (setting [7]); 1500 nM in test [4] (setting [7]); 61 nM in test [5] (setting [7]).
Taken in the same sequence, the figures for FTNSQIFNI were 6.9 nM, 9 nM, 4.8 nM, 7.1 nM and 0.23 nM.
Take SLPSYAAYA: the IC50 worked out at 6.7 nM in test [1] (source organism: SARS-CoV1); 3.9 nM in test [2] (source organism: SARS-CoV1); 8.7 nM in test [3] (source organism: SARS-CoV1); 2.6 nM in test [4] (source organism: SARS-CoV1); 334 nM in test [5] (source organism: SARS-CoV1).
Take RAKRKPAMST: the IC50 in test [1] (setting [7]) stood at 977 nM; in test [2] (setting [7]), 785 nM; in test [3] (setting [7]), 1550 nM; in test [4] (setting [7]), 1380 nM; in test [5] (setting [7]), 551 nM.
With DINESMSQMV, the IC50 in test [1] (setting [7]) was 312 nM; in test [2] (setting [7]) it was 158 nM; in test [3] (setting [7]), 4150 nM; in test [4] (setting [7]) it was 488 nM; in test [5] (setting [7]) it was 2070 nM.
